The values that follow come from US20070286858A1 (Pfizer, published 2007).

Assay [1] concerns the target T1, human RAGE-Fc fusion protein (human, UniProt Q15109 23-344).
T1 construct: also called hRAGE-Fc; huRAGE-Fc; not shown: Fc domain of human IgG
Nature of the assay: ELISA, coated hRAGE-Fc. The protocol: (§1) Antibodies were purified from hybridoma supernatants using standard procedures. Purified antibodies were evaluated for binding to soluble forms of RAGE with the use of ELISA. […] After washing and blocking with PBS containing 1% BSA and 0.05% Tween-20, 100 ul of sample (samples were in several forms: diluted immune serum, hybridoma supernatants, or purified antibodies, as indicated) was added and incubated for 1 hour at room temperature. The plates were washed with PBS, pH 7.2 and bound anti-RAGE antibodies were detected with the use of peroxidase-conjugated goat, anti-mouse IgG (H+L) (IgG) (Pierce, Rockford, Ill.) followed by incubation with the substrate TMB (BioFX Laboratories Owings Mills, Md. Laboratories). Absorbance values were determined at 450 nm in a spectrophotometer. The concentrations of monoclonal antibodies were determined with the use of peroxidase-labeled goat, anti-mouse IgG (Fcγ) (Pierce Rockford, Ill.) and a standard curve was generated by a purified, isotype-matched mouse IgG.

Another assay addresses T2, human RAGE, full length (human, UniProt Q15109 23-404).
T2 construct: Expressed on 293 or CHO cells, or endogenous in human lung sections; also called hRAGE; cell-surface hRAGE
The assay is described as follows: FACS, 293 cells infected with human RAGE adenovirus. The protocol:
Human 293 cells were infected with the human and murine RAGE adenovirus. Infected cells were suspended in PBS containing 1% BSA at a density of 4×10⁴ cells/ml. Cells were incubated with 100 ul of sample (diluted immune sera, hybridoma supernatants or purified antibodies) for 30 min at 4° C. After washing, cells were incubated with PE-labeled goat, anti-mouse, IgG, F(ab′)₂ (DAKO Corporation GlostrupDenmark) for 30 min at 4° C. in the dark. Cell-associated fluorescence signals were measured by a FACScan flow cytofluorometer (Becton Dickinson) using 5000 cells per treatment. Propidium iodide was used to identify dead cells, which were excluded from the analysis.

Assay [2] deals with T3, soluble human streptavidin-tagged RAGE (human, UniProt Q15109 23-344).
T3 construct: also called hRAGE-SA; human RAGE-strep
The assay is described as follows: BIACORE capture, hRAGE-SA over captured antibody, steady state affinity, FC2 (cell circled on the sheet). The protocol:
(§2) The assays were performed by coating anti-human Fc antibodies onto a CM5 BIA chip with 5000 RU (pH 5.0, 7 min.) in flow cells 1-4. Each antibody was captured by flowing at 2.0 μg/ml over the anti-Fc antibodies in flow cells 2-4 (flow cell 1 was used as a reference).
On the technique in general: SPR reads the build-up and loss of mass on a sensor chip optically.

In assay [3] the target is T4, murine RAGE-strep tag fusion protein (mouse, UniProt Q62151 23-343).
T4 construct: also called mRAGE-strep; mRAGE-SA
T4 chain: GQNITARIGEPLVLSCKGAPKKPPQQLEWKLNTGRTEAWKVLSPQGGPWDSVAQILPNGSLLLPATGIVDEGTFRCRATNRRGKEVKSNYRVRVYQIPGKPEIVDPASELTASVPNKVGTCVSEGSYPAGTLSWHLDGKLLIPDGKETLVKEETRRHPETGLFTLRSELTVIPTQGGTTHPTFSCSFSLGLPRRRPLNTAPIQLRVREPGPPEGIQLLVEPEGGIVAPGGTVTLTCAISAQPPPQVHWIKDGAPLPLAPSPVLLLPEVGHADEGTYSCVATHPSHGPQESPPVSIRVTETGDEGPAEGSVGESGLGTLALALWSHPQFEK
The assay is described as follows: BIACORE capture, SA-Mu RAGE over captured antibody, 1:1 Langmuir global fit, FC3. The method, then: as §2

Assay [4] deals with T3, soluble human streptavidin-tagged RAGE. The assay is described as follows: BIACORE capture, hRAGE-SA over captured antibody, 1:1 Langmuir global fit, FC4. The protocol: as §2
For assay [5] the target is unchanged. The assay is described as follows: BIACORE capture, hRAGE-SA over captured antibody, 1:1 Langmuir global fit, row Average. The protocol: as §2
Assay [6] concerns the target T4, murine RAGE-strep tag fusion protein. Nature of the assay: BIACORE capture, SA-Mu RAGE over captured antibody, 1:1 Langmuir global fit, row Average. The protocol:
as §2

The target of assay [7] is T3, soluble human streptavidin-tagged RAGE. Nature of the assay: BIACORE capture, hRAGE-SA over captured antibody, 1:1 Langmuir global fit, FC3. The method, then: as §2
For assay [8], the target named is T4, murine RAGE-strep tag fusion protein. Nature of the assay: BIACORE capture, SA-Mu RAGE over captured antibody, 1:1 Langmuir global fit, FC4. The method, then:
as §2

The target in assay [9] is T3, soluble human streptavidin-tagged RAGE. Nature of the assay: BIACORE capture, hRAGE-SA over captured antibody, steady state affinity, FC3. The protocol: as §2
Assay [10] shares this target. Nature of the assay: BIACORE capture, hRAGE-SA over captured antibody, 1:1 Langmuir global fit, FC2. The method, then: as §2
Assay [11] concerns the target T4, murine RAGE-strep tag fusion protein. The assay is described as follows: BIACORE capture, SA-Mu RAGE over captured antibody, 1:1 Langmuir global fit, FC2. The protocol:
as §2

For assay [12], the target named is T3, soluble human streptavidin-tagged RAGE. The assay is described as follows: BIACORE capture, hRAGE-SA over captured antibody, steady state affinity, FC4. The protocol:
as §2

The target is the same in assay [13]. The assay is described as follows: BIACORE capture, hRAGE-SA over captured antibody, steady state affinity, row Average. The method, then:
as §2

Assay [14] concerns the target T1, human RAGE-Fc fusion protein. The assay is described as follows: competition ELISA on coated hRAGE-Fc; competitor 12.5 ng/ml biotinylated rat XT-M4; upper end of the printed range 0.3-0.4; second listing of this pair (r31, beside r26: 0.95). The method, then:
(§3) ELISA plates were coated overnight with 1 ug/ml human RAGE-Fc. […] Briefly, plates were coated overnight with 1 ug/ml human RAGE-Fc.
On the technique in general: An ELISA detects its analyte on a solid surface through an enzyme-linked reagent.

The target is the same in assay [15]. The assay is described as follows: competition ELISA on coated hRAGE-Fc; competitor 12.5 ng/ml biotinylated rat XT-M4. The protocol:
as §3

Assay [16] has the same target. Nature of the assay: competition ELISA on coated hRAGE-Fc; competitor 12.5 ng/ml biotinylated rat XT-M4; lower end of the printed range 0.3-0.4; second listing of this pair (r31, beside r26: 0.95). The method, then: as §3
For assay [17] the target is unchanged. The assay is described as follows: antibody competition ELISA on hRAGE-Fc; competitor biotinylated XT-M4; sheet note: N52D (labeled N71D) is glycosylation mutant in CDR2 of HC. The method, then: as §3
Assay [18] deals with T5, human RAGE V-region-Fc fusion protein (human, UniProt Q15109 23-118).
T5 construct: also called hRAGE V-domain-Fc; hRAGE-V-Fc (CM); not shown: Fc domain of human IgG
The assay is described as follows: direct binding ELISA, coated hRAGE V-region-Fc. The protocol:
as §1

Assay [19] has as its target T1, human RAGE-Fc fusion protein. The assay is described as follows: BIACORE direct binding, hRAGE-Fc immobilized. The protocol:
The binding of selected murine and rat anti-RAGE antibodies to human and murine RAGE and to the V domains of human and murine RAGE was analyzed by BIACORE® direct binding assay. […] Solution of the anti-RAGE antibodies at two concentrations, 50 and 100 nm, were run over the immobilized RAGE-Fc proteins in duplicate. BIACORE™ technology utilizes changes in the refractive index at the surface layer upon binding of the anti-RAGE antibodies to the immobilized RAGE antigen. Binding is detected by surface plasmon resonance (SPR) of laser light refracting from the surface.
The kinetic rate constants (kₐ and kd) and association and dissociation constants (Kₐ and Kd) for the binding of murine and rat anti-RAGE antibodies to human and murine RAGE were determined by BIACORE™ direct binding assay. Analysis of the signal kinetics data for on-rate and off-rate allows the discrimination between non-specific and specific interactions.

For assay [20] the target is unchanged. Nature of the assay: direct binding ELISA, coated hRAGE-Fc. The method, then: as §1
For assay [21] the target is unchanged. The assay is described as follows: ligand competition ELISA: HMGB1 coated, hRAGE-Fc pre-mixed with mAb, anti-huIgG-HRP; blocked ligand HMGB1. The protocol: Wells were washed and blocked as described above and exposed to 100 μl of pre-incubated mixtures of RAGE-Fc or TrkB-Fc (a non-specific Fc control), at 0.1 μg/ml, plus various forms of the indicated antibody preparation (dilutions of immune sera, hybridoma supernatants or purified antibodies) for 1 hour at room temperature.

Assay [22] has as its target T3, soluble human streptavidin-tagged RAGE. The assay is described as follows: BIACORE capture assay, antibody on CM5 chip, hRAGE-SA 0-100 nM in solution. The protocol: The assays were performed by coating antibodies onto a CM5 BIA chip with 5000-7000 RU.

B1: XT-H7 (antibody, mouse IgG1, V domains shown)
VH: QVQLKESGPGLVAPSQSLSITCTVSGFSLTNYGVHWVRQPPGKGLEWLGVMWAGGSTTYNSALMSRLSISKDNSKSQVFLKMNSLQTDDTAMYYCARYGNYAMDYWGQGTSVTVSS
VL: DIQMTQSPSSLSASLGGKVTITCKASQDIYKYIAWYQHKPGKGPRLLIHYTSTLQPGIPSRFSGSGSGRDYSFSISNLEPEDIATYYCLRYDNLYTFGGGTKLEIK
notes: also called 1hRAGEP3/66
Take B1: the binding result in assay [1] is listed as “binds”; in the assay with human RAGE, full length, “binds”.

B2: XT-M4-V10 (antibody, V domains shown)
VH: EVQLVESGGGLVQPGGSLRLSCAASGFTFNNYWMTWVRQAPGKGLEWVASIDNSGDNTYYPDSVKDRFTISRDNAKNSLYLQMNSLRAEDTAVYYCARGGDITTGFDYWGQGTLVTVSS
VL: DIQMTQSPSSLSASVGDRVTITCRASQDVGIYVNWFQQKPGKAPKRLIYRATNLADGVPSRFSGSGSGTDFTLTISSLQPEDFATYYCLEFDEHPLTFGGGTKVEIK
A word on the Kd: it is the equilibrium constant for the complex coming apart. Usually koff stands for a measure of how fast the partners let go of each other. Read a low koff as a long-lived complex. What is called kon is the second-order rate constant of association. A higher kon goes with faster complex formation. As for B2, the dissociation constant (Kd) in assay [2] came out at 25 nM; in assay [3], 2.9 nM; in [4], 20.3 nM; in [5], 23.4 nM; in assay [6], 3 nM; in assay [7] it was 18.2 nM. The Kd in assay [8] came to 3 nM; in assay [9] it was 24 nM; in assay [10] it was 31.8 nM; in [11], 3 nM; in assay [12], 26 nM; in assay [13] it was 25 nM. For the same molecule, the koff in assay [3] was found to be 0.0076 s⁻¹; in assay [4], 0.0704 s⁻¹; in assay [5], 0.0457 s⁻¹; in assay [6], 0.0077 s⁻¹; in assay [7], 0.0569 s⁻¹; in [8], 0.0078 s⁻¹. Besides, the off-rate constant (koff) in assay [10] was determined as 0.00972 s⁻¹; in [11], 0.0078 s⁻¹. For the same molecule, the on-rate constant (kon) in [3] came to 2.6e+06 M⁻¹ s⁻¹; in assay [4], 3.47e+06 M⁻¹ s⁻¹; in [5], 2.3e+06 M⁻¹ s⁻¹; in [6], 2.6e+06 M⁻¹ s⁻¹; in assay [7], 3.13e+06 M⁻¹ s⁻¹; in [8] it was 2.6e+06 M⁻¹ s⁻¹. The kon in assay [10] was 306000 M⁻¹ s⁻¹; in assay [11] it was 2.6e+06 M⁻¹ s⁻¹.

B3: humanized XT-M4 hVH-V2.0 / hVL-V2.10 (antibody, human IgG1, V domains shown)
VH: B2 VH
VL: B2 VL
Broadly, the IC50 is the concentration that inhibits the measured activity by half. A lower IC50 goes with higher potency. In the case of B3, the results for the IC50 in [14], in assay [15] and in [16] were 0.3 to 0.4 µg/mL, 0.95 µg/mL and 0.3 to 0.4 µg/mL, respectively.

B4: XT-M4 with N52D in the heavy chain variable region (antibody, name in Kabat numbering, V domains shown)
VH: EVQLVESGGGLVQPGRSLKLSCVVSGFTFNNYWMTWIRQTPGKGLEWVASIDNSGDNTYYPDSVKDRFTISRDNAKSTLYLQMNSLRSEDTATYYCTRGGDITTGFDYWGQGVMVTVSS
VL: DIQMTQSPSSMSVSLGDTITITCRASQDVGIYVNWFQQKPGKSPRRMIYRATNLADGVPSRFSGSRSGSIYSLTISSLESEDVADYHCLEFDEHPLTFGSGTKVEIK
notes: Removes the glycosylation site in CDR2; also called XT-M4 N52D
As for B4, the “IC50 (read off the curve)” value in assay [17] is around 0.1 µg/mL.

B5: XT-H2 (antibody, mouse IgG1, V domains shown)
VH: QVQLQQSGAELAKPGASVKMSCKASGYTFTTYWMHWVKQRPGQGLYWIGYINPSTGYTEYNQKFKDKATLTADKSSSTAYMQLSSLTSEDSAVYYCARWAGYTIDYWGQGTSVTVSS
VL: DVVLTQTPLSLPVNIGDQASISCKSTKSLLNSDGFTYLDWYLQKPGQSPQLLIYLVSDRFSGVPDRFSGSGSGTDFTLTISRVEAEDLGVYYCFQSNSLPLTFGSGTKLEIK
notes: also called 1hRAGEP3/16; murine anti-huRAGE monoclonal antibody XT-H2
The EC50 is the midpoint of the concentration-response curve. A high value points to a less potent agent. On to B5, for which, in assay [18], it took 0.1 nM to reach a half-maximal effect (EC50). In assay [19], the Ka was determined as 1.14e+10 M⁻¹, binding was put at a Kd of 0.0876 nM, the koff was found to be 0.000504 s⁻¹ and the kon is 5.76e+06 M⁻¹ s⁻¹. Besides, the EC50 in assay [20] amounted to 0.09 nM. Also, the “IC50 (read off the curve)” value in [21] was around 0.2 µg/mL. In addition, in assay [22], the Ka came to 9.48e+08 M⁻¹, the dissociation constant Kd was 1.06 nM, the koff worked out at 0.00116 s⁻¹ and the kon came out at 1.1e+06 M⁻¹ s⁻¹.
